In patent US20210147508A1 (ACCELERON PHARMA, published 2021):

T1: TGFβ3 (human, UniProt P10600 301-412)
T1 sequence (looked up): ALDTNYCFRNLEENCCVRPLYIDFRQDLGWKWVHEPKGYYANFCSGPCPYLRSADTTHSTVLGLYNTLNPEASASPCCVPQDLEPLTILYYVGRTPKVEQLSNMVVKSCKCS

T2: TGFβ2 (human, UniProt P61812 303-414)
T2 sequence (looked up): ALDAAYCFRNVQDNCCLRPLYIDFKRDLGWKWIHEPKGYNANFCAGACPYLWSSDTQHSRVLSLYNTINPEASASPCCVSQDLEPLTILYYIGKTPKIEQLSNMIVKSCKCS

B1: TGFβRIISHORT-Fc:ALK5-Fc heterodimer (Fc fusion)
chain 1: TIPPHVQKSVNNDMIVTDNNGAVKFPQLCKFCDVRFSTCDNQKSCMSNCSITSICEKPQEVCVAVWRKNDENITLETVCHDPKLPYHDFILEDAASPKCIMKEKKKPGETFFMCSCSSDECNDNIIFSEEYNTSNPDTGGGTHTCPPCPAPELLGGPSVFLFPPKPKDTLMISRTPEVTCVVVDVSHEDPEVKFNWYVDGVEVHNAKTKPREEQYNSTYRVVSVLTVLHQDWLNGKEYKCKVSNKALPAPIEKTISKAKGQPREPQVYTLPPSRKEMTKNQVSLTCLVKGFYPSDIAVEWESNGQPENNYKTTPPVLKSDGSFFLYSKLTVDKSRWQQGNVFSCSVMHEALHNHYTQKSLSLSPGK
chain 2: ALLPGATALQCFCHLCTKDNFTCVTDGLCFVSVTETTDKVIHNSMCIAEIDLIPRDRPFVCAPSSKTGSVTTTYCCNQDHCNKIELPTTVKSSPGLGPVETGGGTHTCPPCPAPELLGGPSVFLFPPKPKDTLMISRTPEVTCVVVDVSHEDPEVKFNWYVDGVEVHNAKTKPREEQYNSTYRVVSVLTVLHQDWLNGKEYKCKVSNKALPAPIEKTISKAKGQPREPQVYTLPPSREEMTKNQVSLTCLVKGFYPSDIAVEWESNGQPENNYDTTPPVLDSDGSFFLYSDLTVDKSRWQQGNVFSCSVMHEALHNHYTQKSLSLSPG
B2: TGFβRIILONG-Fc:ALK5-Fc heterodimer (Fc fusion)
chain 1: TIPPHVQKSDVEMEAQKDEIICPSCNRTAHPLRHINNDMIVTDNNGAVKFPQLCKFCDVRFSTCDNQKSCMSNCSITSICEKPQEVCVAVWRKNDENITLETVCHDPKLPYHDFILEDAASPKCIMKEKKKPGETFFMCSCSSDECNDNIIFSEEYNTSNPDTGGGTHTCPPCPAPELLGGPSVFLFPPKPKDTLMISRTPEVTCVVVDVSHEDPEVKFNWYVDGVEVHNAKTKPREEQYNSTYRVVSVLTVLHQDWLNGKEYKCKVSNKALPAPIEKTISKAKGQPREPQVYTLPPSRKEMTKNQVSLTCLVKGFYPSDIAVEWESNGQPENNYKTTPPVLKSDGSFFLYSKLTVDKSRWQQGNVFSCSVMHEALHNHYTQKSLSLSPGK
chain 2: B1 chain 2

Tests used:
Test in all cases: cell-based or functional assay
[1] = biological target: TGFβ1 (human, UniProt P01137 279-390)
TGFβ1, sequence (P01137 279-390 limits assumed): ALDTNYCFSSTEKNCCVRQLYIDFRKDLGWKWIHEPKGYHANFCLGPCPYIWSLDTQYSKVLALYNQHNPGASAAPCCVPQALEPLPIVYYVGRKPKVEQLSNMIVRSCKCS

[2] = biological target: T1, TGFβ3
[3] = biological target: T2, TGFβ2

Row | IC50 (pM), inhibition of TGFβ1 (640 pg/mL), CAGA12-luciferase reporter in A549 cells [1] | IC50 (pM), inhibition of TGFβ3 (270 pg/mL), CAGA12-luciferase reporter in A549 cells [2] | IC50 (pM), inhibition of TGFβ2 (480 pg/mL), CAGA12-luciferase reporter in A549 cells [3] | Binder
1 | < 350 pM | < 90 pM | ~200 pM | B1
2 | 204 pM | 35 pM | 154 pM | B2
